In test [1] the target is T1, CX3CR1 (293-CX3CR1 cells) (Homo sapiens, UniProt P49238).
T1 construct: expressed in transfected cells
T1 sequence (P49238 1-355): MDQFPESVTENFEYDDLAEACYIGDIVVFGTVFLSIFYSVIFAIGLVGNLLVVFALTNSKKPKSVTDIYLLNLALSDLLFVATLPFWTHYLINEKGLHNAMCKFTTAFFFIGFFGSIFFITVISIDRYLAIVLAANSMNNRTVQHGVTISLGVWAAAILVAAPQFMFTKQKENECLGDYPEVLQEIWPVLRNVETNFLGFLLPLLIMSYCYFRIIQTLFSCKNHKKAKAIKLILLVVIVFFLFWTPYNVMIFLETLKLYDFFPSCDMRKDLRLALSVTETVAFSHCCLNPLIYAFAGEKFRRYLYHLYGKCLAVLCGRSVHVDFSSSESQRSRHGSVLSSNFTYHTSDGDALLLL
Put plainly: G glycoprotein and Fkn binding to 293-CX3CR1 cells by flow cytometry. To be noted: for binding to 293-CX3CR1 cells: wheat germ lectin column fraction (G, F glycoprotein) or purified recombinant polyhistidine-tagged G glycoprotein. The method, then:
(§1) Purified G glycoprotein was examined for binding to 293-CX3CR1 cells^33. A pcDNA 3.1 plasmid containing the CX3CR1 gene and a neomycin resistance gene was used to stably transfect human embryonic kidney (HEK) cells. Neomycin resistance was used for selection and maintenance of plasmid transfection of human embryonic kidney cells.
All binding studies were done on ice and either G glycoprotein or human Fkn (R&D Diagnostics, Minneapolis, […]) containing 1% bovine serum albumin (Sigma) and incubated with the 293-CX3CR1 cells or 293 control cells for 30 min at 4° C. […] For inhibition studies, 100 pM-1 μM human Fkn or G glycoprotein was preincubated with the cells for 30 min at 4° C. Without washing, 100 pM of either Fkn or G glycoprotein was added and incubated for 30 min at 4° C. The cells were washed, blocked with FcγRIII blocking antibody (HB197) for 30 min on ice, washed and stained as appropriate with either an anti-G glycoprotein monoclonal antibody cocktail (132-5B, 132-5G, 130-2G, 232-IF) or a biotinylated anti-G glycoprotein monoclonal antibody cocktail (130-2G, 131-2G) or anti-Fkn monoclonal antibody (51637.11; R&D Diagnostics). Concentrations of 1 μg of anti-G glycoprotein monoclonal antibody (131-2G)^34, rabbit anti-CX3CR1 sera^33, and anti-CX3CR1 monoclonal antibody containing 10 μg/ml heparin were used in all experiments. […] Staining was detected with absorbed FITC-goat anti-mouse (H & L chain) monoclonal antibody (PharMingen, San Diego, Calif.) or streptavidin-PE (PharMingen) using flow cytometry (FACScan, Becton-Dickinson, Mountain View, Calif.). A 76 amino acid ^125I-Fkn polypeptide comprising the […] (NEN, Boston, Mass.) was used in radioligand studies^33. As a control, the void volume following purified G glycoprotein passaged over an anti-G glycoprotein antibody (130-2G) affinity column was examined by flow cytometry for binding to either 293 or 293-CX3CR1 cells.
(§2) The receptor for Fkn, CX3CR1, was previously identified and characterized using anti-CX3CR1 rabbit antiserum and CX3CR1-transfected human embryonic kidney cells (293-CX3CR1 cells)^33.
The percent Fkn-maximum binding was calculated using the equation: [% G (or Fkn) 293-CX3CR1]-[% G (or Fkn) 293]/[% Fkn (10 nM) 293-CX3CR1]-[% Fkn (10 nM) 293], where G=G glycoprotein, Fkn=fractalkine, 293-CX3CR1=CX3CR1-transfected 293, 293=untransfected 293. The concentration of G glycoprotein was estimated using a molecular weight of 90 kD.
For orientation: A flow cytometer gives signals particle by particle.

The test system of test [2] is 293 cells. Put plainly: G glycoprotein and Fkn binding to untransfected 293 control cells by flow cytometry. Also on record: species or system human. Conditions: for binding to 293 cells: wheat germ lectin column fraction (G, F glycoprotein) or purified recombinant polyhistidine-tagged G glycoprotein. As for the experimental part: as §1
All binding studies were done on ice and either G glycoprotein or human Fkn (R&D Diagnostics, Minneapolis, Minn.) were diluted between 1 nM-100 nM in PBS (GIBCO) containing 1% bovine serum albumin (Sigma) and incubated with the 293-CX3CR1 cells or 293 control cells for 30 min at 4° C. […] For inhibition studies, 100 pM-1 μM human Fkn or G glycoprotein was preincubated with the cells for 30 min at 4° C. Without washing, 100 pM of either Fkn or G glycoprotein was added and incubated for 30 min at 4° C. The cells were washed, blocked with FcγRIII blocking antibody (HB197) for 30 min on ice, washed and stained as appropriate with either an anti-G glycoprotein monoclonal antibody cocktail (132-5B, 132-5G, 130-2G, 232-IF) or a biotinylated anti-G glycoprotein monoclonal antibody cocktail (130-2G, 131-2G) or anti-Fkn monoclonal antibody (51637.11; R&D Diagnostics). Concentrations of 1 μg of anti-G glycoprotein monoclonal antibody (131-2G)^34, rabbit anti-CX3CR1 sera^33, and anti-CX3CR1 monoclonal antibody containing 10 μg/ml heparin were used in all experiments. […] Staining was detected with absorbed FITC-goat anti-mouse (H & L chain) monoclonal antibody (PharMingen, San Diego, Calif.) or streptavidin-PE (PharMingen) using flow cytometry (FACScan, Becton-Dickinson, Mountain View, Calif.). A 76 amino acid ^125I-Fkn polypeptide comprising the […] (NEN, Boston, Mass.) was used in radioligand studies^33. As a control, the void volume following purified G glycoprotein passaged over an anti-G glycoprotein antibody (130-2G) affinity column was examined by flow cytometry for binding to either 293 or 293-CX3CR1 cells.
as §2

Where [3] appears, read: 10 nM ligand, representative experiment, FIG. 1.

The values that follow come from patent US8173131B2, “Compositions and methods for modulating RSV infection and immunity” (PerkinElmer Health Sciences, Inc., priority 2000, dated 2012).

Turning to “F glycoprotein: RSV F (fusion) glycoprotein in wheat germ lectin column fraction”, the “binding to 293-CX3CR1 cells” value in test [1] was found to be 12%. The “binding to 293 cells” value in test [2] is recorded as 8%.

B1: GHIS: purified recombinant soluble polyhistidine-tagged G glycoprotein from transfected Vero cells (protein)
chain: NHKVTPTTAIIQDATSQIKNTTPTYLTQNPQLGISPSNPSEITSQITTILASTTPGVKSTLQSTTVKTKNTTTTQTQPSKPTTKQRQNKPPSKPNNDFHFEVFNFVPCSICSNNPTCWAICKRIPNKKPGKKTTTKPTKKPTLKTTKKDPKPQTTKSKEVPTTKPTEEPTINTTKTNIITTLLTSNTTGNPELTSQMETFHSTSSEGNPSPSQVSTTSEYPSQPSSPPNTPRQ
modifications: left off: small tags and cut ends
notes: purified recombinant soluble polyhistidine-tagged G glycoprotein from transfected Vero cells
As to B1, the “percent positive staining of CX3CR1-293 cells” value in test [1] (setting [3]) amounted to 68%. For the same molecule, in test [1], the “binding to 293-CX3CR1 cells” value is on record as 68-88%. For the same molecule, in test [2] (setting [3]), the “percent positive staining of 293 cells” value was found to be 12%. Also, the “binding to 293 cells” value in test [2] was 7-12%.
